Consider 139 substances from the supplement of paper PMC12042874.

± gives the uncertainty stated by the source.

The series in a line: amyloid nucleation score (Sup35N fusion, yeast selection) (log enrichment); library NNK1; higher = more nucleation; inactive = no reads after selection. The method, boiled down:
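After 24 hours of induction with 100 μM copper sulfate, psi-negative yeast expressing peptides of 20 random codons fused to Sup35N were grown for 7 days at 30°C on medium lacking adenine and uracil. Input and output plasmid inserts were sequenced with Illumina, and sequences with under 100 input reads were discarded. Scores for nucleation are the DiMSum log enrichment of output over input reads, centred on the mode score of non-aggregating sequences.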

Turning to SGGSEELLRVVMVSSMKGPW, the amyloid nucleation score is -0.254 ± 0.81.
As for YFCILGSNDSNRIGWPRRST, the amyloid nucleation score was 0.101 ± 0.42.
As for SDWGGVMVDRGSGW, the amyloid nucleation score was found to be 1.36 ± 0.47.
The substance ADIPCQNCVSYVRYFGLNVI displayed an amyloid nucleation score of -0.094 ± 0.48.
With AARRLNELSSELKWMCSATD, the amyloid nucleation score is -0.077 ± 0.4.
For VPPASQISGPWARLSEMVSH the value was -1.12 ± 0.7; for TEDDYYSGLRRGKDKEGCSF, -0.084 ± 0.44.
Substance LSCKSVVPLSNSWYAIVLRL displayed an amyloid nucleation score of 1.19 ± 0.29.
As to IWYYSSAQLDCFPYNSTMQE, the amyloid nucleation score is 0.8 ± 0.93.
With DSEDVVLQCEWWTRLARIEY, the amyloid nucleation score is -0.333 ± 0.54.
For TWRQNSRGNRASNCYVRSLS, the amyloid nucleation score result is “inactive”.
WRIMNHNVLLMLVRLGSILL: the amyloid nucleation score was found to be 1.18 ± 0.28.
As to VYCFCQNRSSFYGKMHLGMH, the amyloid nucleation score stood at 1.25 ± 0.62.
In the case of YNAARLFPYVNVWGII, the amyloid nucleation score was -0.305 ± 1.3.
For FWRGDRLVMSFEE, the amyloid nucleation score is -0.285 ± 0.83.
In turn, TCIIFIYNSWSSLQPFMSGM returned an amyloid nucleation score of 2.65 ± 0.21.
Turning to GDTYHNYVWRLDACSTLPWY, the amyloid nucleation score is -0.547 ± 0.53.
On to YGSLIHMIRNEGLNIGGKSA, for which the amyloid nucleation score is -0.51 ± 0.4.
Turning to QGMQICHQKHGAWSGYNGRE, the amyloid nucleation score is -0.379 ± 0.29.
As for VFADVISIKMNCTLLTSILL, the amyloid nucleation score came out at 0.823 ± 0.37.
In turn, TYPYYVTVGGIS registered an amyloid nucleation score of 0.113 ± 0.43.
NPHCVSLKTRIPFVGGSKCG: the amyloid nucleation score is -0.748 ± 1.2.
Consider SYRPFLMLGAQLQPYRVSGS, for which the amyloid nucleation score was 1.32 ± 0.6.
WLLLNDSFSTRHLFMPRSKW gave an amyloid nucleation score of -0.381 ± 0.75.
As for DVISLTHVEKSWLVSLWKRS, the amyloid nucleation score is -0.045 ± 0.69.
As to DMNILVLLMGDVVRLATTEW, the amyloid nucleation score came to 2.68 ± 0.17.
In turn, VSGDPNMRLCAISIATGFVF had an amyloid nucleation score of -0.468 ± 0.63.
LIHRA came in with an amyloid nucleation score of -0.041 ± 0.32.
On to RMDSGIGDRSTGGDRTNGMW, for which the amyloid nucleation score was -0.546 ± 0.53.
For LFETI, the amyloid nucleation score is 0.746 ± 0.71.
Turning to QWQIDMIPRCLGDMNLIVLQ, the amyloid nucleation score result is “inactive”.
The result for CLLRTRFWR reads 0.364 ± 0.56.
The result for MYGITKSA reads 0.195 ± 0.64.
Consider NYLGRVLFFYNWFDKQYRSK, for which the amyloid nucleation score came out at 5.878 ± 0.048.
The substance YKSVLHSSRSGGAYGVVKSL returned an amyloid nucleation score of -0.038 ± 0.45.
WNRVWIMYGT showed an amyloid nucleation score of 1.57 ± 0.22.
HPQVTWGSRLAVNFCAWCYG: the amyloid nucleation score stood at 4.5 ± 0.054.
Substance MHPAVVYCPLIK showed an amyloid nucleation score of 0.735 ± 0.64.
DDLLH had an amyloid nucleation score of 0.387 ± 0.79.
In turn, FFFHSKDVYYGDFVHLSFAG came in with an amyloid nucleation score of -0.352 ± 1.2.
For LSRPVDNSCLESMRRVDWTH the value was -0.444 ± 1.2.
Substance YLGSGCRFETSYLDATFPVS yielded an amyloid nucleation score of 0.387 ± 1.
For CHSINLGLNPFKYVNLPNGH, the amyloid nucleation score came out at 2.38 ± 0.15.
Take KSQTRDIFRGDVMC: the amyloid nucleation score is -0.991 ± 0.71.
Substance LTFNPLTGCNNSQWFDGISG returned an amyloid nucleation score of -1.23 ± 2.1.
The result for MREDIAFDFW reads 4.22 ± 0.15; that for EILFFEFFKNEFLYCHKMLC, 0.902 ± 0.4.
For MYSLVCNHCAQSISIPSRWS, the amyloid nucleation score is 3.97 ± 0.11.
Regarding SLVLRRLYEVSVTCTAGNAW, the amyloid nucleation score is 0.094 ± 0.98.
With RSMWICLWACYNLMVIRWPG, the amyloid nucleation score was -0.446 ± 0.54.
Substance KWEYCCLFMLAHVEDHLKGF yielded an amyloid nucleation score of 0.59 ± 0.34.
In turn, VFESWKFELRVWIVVTFLHG returned an amyloid nucleation score of 0.21 ± 0.52.
With TRLGYFNFGSLHVSLWDFML, the amyloid nucleation score is 0.6 ± 0.28.
For the substance AVFHRREVRELAHRQPLLPI, the amyloid nucleation score is 1.03 ± 0.66.
Take VWSGEE: the amyloid nucleation score is -0.344 ± 0.38.
For GMVSIII the value was 0.276 ± 0.51; for SNKRNYRLE, 0.401 ± 0.62; for GSRSQCAPSQFLAAGTHNKF, -1.17 ± 0.84.
With ILCALMRFLVETLHLINFWK, the amyloid nucleation score is -0.278 ± 0.61.
PLELPVVFIMSDFSFWRRAQ registered an amyloid nucleation score of 0.555 ± 0.53.
As for VDRQFTDEFKVFTEGTKVDE, the amyloid nucleation score was -0.5 ± 1.4.
For SSLPRPPMPKWSDV, the amyloid nucleation score was 0.125 ± 0.88.
For EMTRLLNSCIKYQYSRQRYA, the amyloid nucleation score is -0.97 ± 1.2.
Take SDLWLLECWTLDICGWLKAT: the amyloid nucleation score was 0.992 ± 0.58.
The result for LWLWHELHAIYMGMRGVSVL reads “inactive”; that for VMSVSWVCIGCLSEDISWVF, 5.884 ± 0.044.
DIALMWLLLVHRDYT registered an amyloid nucleation score of -1.07 ± 0.76.
For NSASYII the value was -0.048 ± 0.24; for KGNRGQ, “inactive”; for LLLSILRWDEDMMLNFW, 1.21 ± 0.43.
On to CFFPIRDQQCTRSYHFSDHM, for which the amyloid nucleation score is 0.727 ± 0.63.
LIWFVYMD displayed an amyloid nucleation score of 0.347 ± 0.55.
The result for QLGQAICRSLYNVRSYMQGF reads “inactive”.
The result for LNCLFLFSISAFRVLASHIM reads 0.448 ± 0.42.
Substance CVNIRNQKQLSFAGLVDLSV yielded an amyloid nucleation score of 0.358 ± 0.59.
GRRVFGRYVQINNGPISRFF gave an amyloid nucleation score of 0.266 ± 1.1.
The substance NFVQLAWLVRWAWEV gave an amyloid nucleation score of -0.088 ± 0.56.
Take NLSALLHDHFMGPIDLKFLT: the amyloid nucleation score stood at 1.8 ± 0.52.
Substance EVSLLSFLE displayed an amyloid nucleation score of 0.68 ± 0.39.
FTRGDICLYLFCELFRPVNC: the amyloid nucleation score came out at 2.29 ± 0.22.
For YNISDSTSPMVASRMGRLGQ, the amyloid nucleation score came to 0.364 ± 0.45.
In turn, RSRNSPTR yielded an amyloid nucleation score of -0.027 ± 0.37.
As to GFAWYDYMLQYIVVLVGLYN, the amyloid nucleation score is -0.159 ± 1.4.
Substance DSSRSVFLWTGG showed an amyloid nucleation score of -0.994 ± 1.9.
Turning to HILYKRFFFGSCSSGCHL, the amyloid nucleation score was -0.428 ± 0.47.
CWDSNALADGCAWYKVLMDI showed an amyloid nucleation score of 0.229 ± 0.35.
For the substance VFGVKVRDCASANGVFGWSS, the amyloid nucleation score was -0.14 ± 1.4.
Substance TVVNSVGYYAPKLPSACLGN came in with an amyloid nucleation score of 0.638 ± 0.31.
The result for RSTGTGTICV reads “inactive”; that for AHTSYYTMSTSRTADGVKIS, 0.028 ± 0.31; that for RYGGRCNTR, 0.016 ± 1.7.
PLEMGSHIGRL yielded an amyloid nucleation score of -1.54 ± 2.7.
Substance AVLLCRSESCCKYSAIANSG displayed an amyloid nucleation score of -1.22 ± 0.69.
For the substance LNASGIVVCFYSSDNTCTYE, the amyloid nucleation score came to 4.49 ± 0.089.
The result for GRGTGAVFVYVEWSLYGN reads -0.036 ± 0.47; that for NSLLGYLYSYVVFYREHIVI, -0.326 ± 1.2; that for ACARTTDIFV, -1 ± 1.1.
The result for LLKENWFNCSLWHDIVGISM reads -0.596 ± 0.59.
For CVTAVIRDGWGWNYCCRDHR the value was “inactive”; for ADDACVSET, “inactive”; for SIGLC, 1.31 ± 0.76.
The substance GGLGRYWTTHE yielded an amyloid nucleation score of 0.436 ± 0.83.
For GMDLQVMSHCASIHNNS the value was -0.199 ± 0.37; for NSFVYQWFGYVSFKLFRCTV, 0.316 ± 0.26; for RGLSNA, 0.664 ± 0.48.
As for TKNSLGHNMLIDWGSCVGGC, the amyloid nucleation score stood at 1.23 ± 0.31.
For QLRAYEFGWETREELNSRPY the value was -1.64 ± 2.4; for VFPALLNISRLISKTQCSQV, -0.978 ± 0.99.
Regarding SVDNMVGVTGSFGGARVILS, the amyloid nucleation score is -0.237 ± 0.39.
For DFHDLSNLVTGGLLITHIL the value was 1.01 ± 0.58; for DIRNLLTWSISDVVTVRKIG, -0.643 ± 0.33; for THWGRVELMFFRSSKHRLT, -0.334 ± 1.
With IKDTGYYLHMIEQPDTLNLW, the amyloid nucleation score turned out to be 0.651 ± 0.53.
For DNSRIYLCGSLNCFYFSDVL, the amyloid nucleation score came to 7.656 ± 0.074.
In turn, EPGSLTESKSFYFLSCPTTR had an amyloid nucleation score of 0.808 ± 0.7.
AYNFRSRRWMLFGYNWVSAP registered an amyloid nucleation score of 1.59 ± 0.51.
The substance MTHLNPMSFVDPKFVPVDFS showed an amyloid nucleation score of 2.48 ± 0.47.
In the case of RRREKHAMDPELRARGQQ, the amyloid nucleation score is -0.106 ± 0.73.
As for TYLFF, the amyloid nucleation score entry is “inactive”.
Substance GRTAQAVRGGRAVVYAGLKL returned an amyloid nucleation score of -0.157 ± 0.36.
In the case of VRSCTWCGSEGPGTIPWLGD, the amyloid nucleation score worked out at 0.443 ± 0.39.
The result for YRFFCCVGHITSFVFLVGNV reads 5.25 ± 0.054; that for RMRRLCVSEGRDLSGECCYM, 0.544 ± 0.3; that for AGSEVFEK, 0.073 ± 0.32.
As for GSLIIHHQWFFVIAMRVSLS, the amyloid nucleation score was 0.419 ± 0.53.
YSAIRTKFFAA displayed an amyloid nucleation score of 0.616 ± 1.1.
Take EPYSLAIKGVHTLLRGSRKS: the amyloid nucleation score was 0.571 ± 0.29.
On to RWFYSCDVVAFKGH, for which the amyloid nucleation score turned out to be 0.584 ± 0.84.
For LSIGFGNPVAS the value was -0.312 ± 0.29.
As for VVQAVIR, the amyloid nucleation score is -1.01 ± 1.7.
The result for YMLGREMS reads “inactive”.
HMSGFWM returned an amyloid nucleation score of -0.856 ± 1.7.
The result for TMISLAFIIYPLNMAPMYME reads 1.97 ± 0.45.
Substance RGDLCGSRIFLWFALPVN yielded an amyloid nucleation score of -0.726 ± 0.62.
For SSLLFEPATASFILQD the value was -0.894 ± 0.68; for SYTRPILIWSLNRFSAG, 1.26 ± 0.34.
Substance NHVLVVGISNLSSCHWMPNF came in with an amyloid nucleation score of 3.14 ± 0.12.
As to MMAFDRRCLGFPMNVGYD, the amyloid nucleation score stood at 1.07 ± 0.46.
As to HRILRESRAGRF, the amyloid nucleation score is -0.396 ± 0.36.
